For assay [1], the target named is serum thymidine kinase 1 (sTK1), dog (dog (endogenous in serum)). Put plainly: SEC; CMT serum (dog No. 23) on Superose 12 (FPLC), 0.01 M HEPES pH 7.6, 0.15 M NH4Cl, 0.02% NaN3; fractions tested for TK1 activity and by immunoaffinity/Western blot.
Assay [2] addresses cellular thymidine kinase 1 (TK1), dog (dog (endogenous in ALL cells and mammary tumor tissue)). The assay is described as follows: SEC; ALL cell extract on Superose 12 (FPLC), 0.01 M HEPES pH 7.6, 0.15 M NH4Cl, 0.02% NaN3; fractions tested for TK1 activity and by immunoaffinity/Western blot. In general terms: Size exclusion chromatography separates by hydrodynamic size, large species first.

Assay [3] has the same target. Put plainly: SEC; CMT tissue extract (dog No. 23) on Superose 12 (FPLC), 0.01 M HEPES pH 7.6, 0.15 M NH4Cl, 0.02% NaN3; fractions tested for TK1 activity and by immunoaffinity/Western blot.

Several values for one entry are separate records, joined by “and”; a condition that tells them apart may be missing. Equal values may be shown once.

Broadly, the stoichiometry N is the number of molecules, sites or subunits per partner or assembly.

Take “serum thymidine kinase 1 (sTK1), dog (enzyme)”: the stoichiometry N in assay [1] was 2 and 4.
Turning to “cellular thymidine kinase 1 (TK1), dog (enzyme)”, the values for the stoichiometry N in assay [2] and in assay [3] were 2 and 4, respectively.
